Molecular target: HV62, synthetic peptide corresponding to residues 33 to 94 of human VAMP-2 (human) (UniProt P63027)

Q: For “enterokinase-nicked recombinant single-chain TeNT, wild type L chain (enzyme)”, which Initial rate of cleavage of HV62 (nmol · min^-1mg^-1) is on record?
A: 22.7
